Measurements published in patent US20230340055A1 (published 2023).

Columns and labels:
[1] = biological target: T1, IL-2Rαβγ (trimeric high-affinity IL-2 receptor), human, on cells (human, UniProt P01589 22-272; P14784 27-551; P31785 23-369); assay: cell-based or functional assay
T1 sequence (looked up) 1: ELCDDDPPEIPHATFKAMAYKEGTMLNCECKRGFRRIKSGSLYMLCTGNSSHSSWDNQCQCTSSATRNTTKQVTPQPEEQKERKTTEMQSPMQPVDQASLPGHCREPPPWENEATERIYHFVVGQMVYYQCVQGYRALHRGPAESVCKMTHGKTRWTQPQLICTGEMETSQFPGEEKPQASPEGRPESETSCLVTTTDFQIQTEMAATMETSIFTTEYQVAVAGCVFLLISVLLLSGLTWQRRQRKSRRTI
T1 sequence (looked up) 2: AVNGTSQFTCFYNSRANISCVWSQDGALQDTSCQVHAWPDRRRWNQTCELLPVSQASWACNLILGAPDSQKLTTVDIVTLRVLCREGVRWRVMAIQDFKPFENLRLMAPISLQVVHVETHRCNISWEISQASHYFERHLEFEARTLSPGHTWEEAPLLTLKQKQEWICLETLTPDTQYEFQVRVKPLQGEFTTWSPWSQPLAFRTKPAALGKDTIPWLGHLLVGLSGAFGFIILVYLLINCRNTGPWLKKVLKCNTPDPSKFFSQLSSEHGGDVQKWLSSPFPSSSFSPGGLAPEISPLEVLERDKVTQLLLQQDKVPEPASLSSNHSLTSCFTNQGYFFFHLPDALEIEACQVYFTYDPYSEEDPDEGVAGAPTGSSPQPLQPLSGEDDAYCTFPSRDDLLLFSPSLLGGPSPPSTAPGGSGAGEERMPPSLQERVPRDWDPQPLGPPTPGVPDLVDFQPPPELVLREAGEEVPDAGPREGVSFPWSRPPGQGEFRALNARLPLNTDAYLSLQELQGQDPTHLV
T1 sequence (looked up) 3: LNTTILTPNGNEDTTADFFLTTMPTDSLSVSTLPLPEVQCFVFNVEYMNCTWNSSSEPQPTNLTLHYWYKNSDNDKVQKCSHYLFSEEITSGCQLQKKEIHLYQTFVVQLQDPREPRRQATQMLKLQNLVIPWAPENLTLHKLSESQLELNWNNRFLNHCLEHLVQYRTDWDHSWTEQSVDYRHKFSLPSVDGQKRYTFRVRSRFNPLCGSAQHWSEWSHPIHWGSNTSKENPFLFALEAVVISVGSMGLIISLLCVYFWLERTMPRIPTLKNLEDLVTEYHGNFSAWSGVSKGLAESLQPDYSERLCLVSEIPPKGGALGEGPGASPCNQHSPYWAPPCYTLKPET

[2] = biological target: T2, Human IL-2 Receptor alpha, Fc-Tag (Symansis, New Zealand) (human, UniProt P01589 22-240); assay: SPR; KD to IL-2Rα divided by KD to IL-2Rβ of the same compound
T2 construct: extracellular domain; Bought reagent; also called IL-2Rα; IL-2Rα-Fc; not shown: Fc-Tag (captured by anti-human IgG (Fc) antibody)
T2 sequence (looked up): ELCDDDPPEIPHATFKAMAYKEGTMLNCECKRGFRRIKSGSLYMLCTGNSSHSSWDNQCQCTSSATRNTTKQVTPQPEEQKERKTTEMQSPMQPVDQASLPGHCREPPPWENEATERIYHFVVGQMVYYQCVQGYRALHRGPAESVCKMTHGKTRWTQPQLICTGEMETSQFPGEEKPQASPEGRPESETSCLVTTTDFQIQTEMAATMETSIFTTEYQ
Experimental: (§1) For the determination of binding kinetics to IL-2Rα the following chip preparation was used: Human IL-2 Receptor alpha, Fc-Tag (Symansis, New Zealand) was diluted in HBS-EP running buffer (GE Healthcare, 10 mM HEPES, 150 mM NaCl, 3 mM EDTA, 0.05% Surfactant P20, pH 7.4) to approx. 0.25 µg/mL and immobilized at a flow rate of 50 µL/min for 60 s to achieve 90 - 110 response units (RU).
as §1, with “IL-2Rβ” for “IL-2Rα”, “beta,” for “alpha,”, “around” for “approx.”, “300” for “90”, “330” for “110”
(50 µL/min flow rate, 60 s contact time, 300 s dissociation time). Double referenced data (subtracted data from the reference flow cell and the buffer only samples) was analysed via a kinetic fit (1:1 binding model) to determine KD, kₐ and kd. Regeneration after each cycle was performed with 3 M MgCl₂.

B1: protein 6 (ligand)
chain: APTSSSTKKTQLQLEHLLLDLQMILNGINNYKNPKLTFGNSTKFYMPKKATELKHLQCLEEELKPLEEVLNLAQSKNFHLRPRDLISNINVIVLELKGSETTFMCEYADETATIVEFLNRWITFSQSIISTLT
modifications: glycosylated (same sequence with the N-glycosylation motif FGNST as protein 1f); glycan sites not analysed separately for protein 6
fold lower potency than 1d, pSTAT5, Tregs (human PBMCs) [1]: ~1900 fold | KD-Ratio (α/β) [2]: > 2.7
